Reference: publication PMC6138665, “HUWE1 E3 ligase promotes PINK1/PARKIN-independent mitophagy by regulating AMBRA1 activation via IKKα” (Nature Communications, 2018)
Non-standard residues stand in square brackets, D forms with d. No end group written: not given here. pS = N[C@@H](COP(=O)(O)O)C(=O)O

B1: AMBRA1-LIR peptide, S1014 phosphorylated (P1) (peptide)
peptide: EALN[pS]GVEYYWDQLNET
notes: limits counted from S1014 as the fifth letter; also called S1014-phosphorylated AMBRA1-LIR peptide; source: synthetic peptide, bought: GenScript
B2: AMBRA1-LIR peptide, unphosphorylated (P0) (peptide)
peptide: EALNSGVEYYWDQLNET
notes: limits counted from S1014 as the fifth letter; also called unmodified AMBRA1-LIR; source: synthetic peptide, bought: GenScript

What was measured:
[1] = target: LC3B protein (recombinant) (UniProt Q9GZQ8 1-120); test: ITC; peptides at 0.35 mM titrated into 0.015 mM LC3 and GABARAP proteins in 21 steps; MicroCal VP-ITC; 25 °C and 35 °C (the LC3B titrations of Fig. 4a at 35 °C); 50 mM Na2HPO4, 100 mM NaCl, pH 7.0; one-site binding model; details: both partners purified
[2] = target: T1, GABARAP protein (recombinant) (UniProt O95166 1-117); test: as above; details: both partners purified
T1 construct: GABARAP, one of the six mATG8 proteins; CSPs were mapped on PDB 1GNU; source: unlabelled or 15N-labelled
T1 sequence (O95166 whole entry): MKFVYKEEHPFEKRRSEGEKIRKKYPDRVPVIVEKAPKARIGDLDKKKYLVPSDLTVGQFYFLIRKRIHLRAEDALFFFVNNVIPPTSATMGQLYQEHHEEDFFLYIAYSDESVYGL

Binder	Kd [1] [µM]	Kd [2] [µM]
B1	53	21
B2	> 100	~40
